Consider 2 substances from publication PMC10876215, “Nucleosome conformation dictates the histone code” (eLife, 2024).

Experiment [1] addresses T1, BPTF BD (6His-tagged) (Homo sapiens, UniProt Q12830).
T1 construct: Q12830 (2914-3037); host or cells: E. coli BL21 (DE3)
Kind of experiment: dCypher binding assay, histone peptides, 6His-BD Query. The following applies: Table (Ext. Figure 2A), 4PL fit, top constrained (496106). The text has this:
(§1) Human BPTF (Uniprot Q12830) PHD finger-bromodomain (PHD-BD) and PHD finger were cloned into pGEX6p with an N-terminal Glutathione S-Transferase (GST) tag and a PreScission protease cleavage site (Supplementary file 2A and Figure 1—figure supplement 2). BPTF BD with an N-terminal 6xHistidine (6His) tag and Tobacco Etch Virus (TEV) protease cleavage site was from Addgene (plasmid 39111). The Q5 site-directed mutagenesis kit (New England Biolabs [NEB]) was used for domain addition/removal or single amino acid substitutions. All constructs were expressed in E. coli BL21 (DE3) (Thermo Fisher Scientific or NEB). Cells were grown to OD600 ~1.0 and induced with 0.8 mM IPTG at 18 °C for ~16 hr in LB (or M9 minimal media for NMR). M9 media was supplemented with vitamin (Centrum Adult), 1 g/L ^15NH4Cl, and 5 g/L D-glucose. For constructs containing the BPTF PHD finger all growth media and buffers were supplemented with 100 μM ZnCl2. For purification of BPTF recombinants cells were lysed by sonication, and lysates were incubated with either glutathione agarose (Thermo Fisher Scientific) or Ni-NTA resin (Thermo Fisher Scientific) to respectively enrich for GST- and 6His-tagged proteins. Fusion proteins were eluted with reduced L-glutathione or imidazole as appropriate. […] Protein concentrations were determined by UV-Vis spectroscopy. […]

Experiment [2] concerns the target T2, BPTF PHD-BD (GST-tagged) (Homo sapiens, UniProt Q12830).
T2 construct: Q12830 (2865-3036); made in house; host or cells: E. coli BL21 (DE3)
Put plainly: dCypher binding assay, histone peptides, GST-PHD-BD Query.
Description: as §1

For the next experiment, the target named is T3, BPTF PHD (6His-tagged) (Homo sapiens, UniProt Q12830).
T3 construct: Q12830 (2865-2924); made in house; host or cells: E. coli BL21 (DE3)
Put plainly: dCypher binding assay, histone peptides, 6His-PHD Query. The following applies: Table (Ext. Figure 2A), 4PL fit, H3 1-20 top constrained (426889).
Description: as §1

Experiment [3] addresses T1, BPTF BD (6His-tagged). Put plainly: dCypher binding assay, NCPs, 6His-BD Query. The source says:
Human BPTF (Uniprot Q12830) PHD finger-bromodomain (PHD-BD) and PHD finger were cloned into pGEX6p with an N-terminal Glutathione S-Transferase (GST) tag and a PreScission protease cleavage site (Supplementary file 2A and Figure 1—figure supplement 2). BPTF BD with an N-terminal 6xHistidine (6His) tag and Tobacco Etch Virus (TEV) protease cleavage site was from Addgene (plasmid 39111). The Q5 site-directed mutagenesis kit (New England Biolabs [NEB]) was used for domain addition/removal or single amino acid substitutions. All constructs were expressed in E. coli BL21 (DE3) (Thermo Fisher Scientific or NEB). […] Protein concentrations were determined by UV-Vis spectroscopy.
The dCypher approach (dCypher for brevity) was developed on the chemiluminescent bead-based, no-wash Alpha platform (PerkinElmer) for the high-throughput profiling of CAP binding to PTM-defined histone peptides and semi-synthetic nucleosomes (homotypic NCPs unless stated otherwise) ([Marunde et al., 2022a]; [Morgan et al., 2021]; [Weinberg et al., 2019]; [Dilworth et al., 2022]; [Weinberg et al., 2021]; [Jain et al., 2020]; [Lloyd et al., 2020]). […] The plate was incubated at room temperature in subdued lighting for 60 min and the Alpha signal was measured on a PerkinElmer 2104 EnVision (680 nm laser excitation, 570 nm emission filter ± 50 nm bandwidth). […]

Experiment [4] concerns GST-PHD^W2891A-BD (GST-PHD^mut-BD). The class given is binding, Human. The settings on record: for binding: NCPs. The text has this:
Human BPTF (Uniprot Q12830) PHD finger-bromodomain (PHD-BD) and PHD finger were cloned into pGEX6p with an N-terminal Glutathione S-Transferase (GST) tag and a PreScission protease cleavage site (Supplementary file 2A and Figure 1—figure supplement 2). BPTF BD with an N-terminal 6xHistidine (6His) tag and Tobacco Etch Virus (TEV) protease cleavage site was from Addgene (plasmid 39111). The Q5 site-directed mutagenesis kit (New England Biolabs [NEB]) was used for domain addition/removal or single amino acid substitutions. All constructs were expressed in E. coli BL21 (DE3) (Thermo Fisher Scientific or NEB). Cells were grown to OD600 ~1.0 and induced with 0.8 mM IPTG at 18 °C for ~16 hr in LB (or M9 minimal media for NMR). M9 media was supplemented with vitamin (Centrum Adult), 1 g/L ^15NH4Cl, and 5 g/L D-glucose. For constructs containing the BPTF PHD finger all growth media and buffers were supplemented with 100 μM ZnCl2. For purification of BPTF recombinants cells were lysed by sonication, and lysates were incubated with either glutathione agarose (Thermo Fisher Scientific) or Ni-NTA resin (Thermo Fisher Scientific) to respectively enrich for GST- and 6His-tagged proteins. Fusion proteins were eluted with reduced L-glutathione or imidazole as appropriate. For NMR, samples were cleaved from the GST tag using PreScission protease. All BPTF proteins were then further purified using anion exchange (Source 15Q, GE Healthcare Life Sciences) and size exclusion chromatography (SEC; Superdex 75, GE Healthcare Life Sciences). Protein concentrations were determined by UV-Vis spectroscopy.
The dCypher approach (dCypher for brevity) was developed on the chemiluminescent bead-based, no-wash Alpha platform (PerkinElmer) for the high-throughput profiling of CAP binding to PTM-defined histone peptides and semi-synthetic nucleosomes (homotypic NCPs unless stated otherwise) ([Marunde et al., 2022a]; [Morgan et al., 2021]; [Weinberg et al., 2019]; [Dilworth et al., 2022]; [Weinberg et al., 2021]; [Jain et al., 2020]; [Lloyd et al., 2020]). […]

Experiment [5] addresses T2, BPTF PHD-BD (GST-tagged). Put plainly: dCypher binding assay, NCPs, GST-PHD-BD Query.
Description: as §1

Experiment [6] concerns 21 bp double-stranded DNA. Put plainly: NMR titration (1H-15N HSQC) of 15N-H4 tail peptide with dsDNA. The following applies: 30 μM peptide; DNA ratios up to 1:3; 20 mM MOPS pH 7.2, 150 mM KCl, 25 °C. Type of experiment: binding. How it is done:
The histone H4 tail (residues 1–25 followed by a C-terminal tyrosine for quantification) was expressed from pGEX6p as a fusion with an N-terminal GST tag followed by a PreScission protease cleavage site (Supplementary file 2A). This was overexpressed in E. coli BL21 (DE3) (NEB) grown in M9 minimal media supplemented with vitamin (Centrum daily multivitamin), 1 g/L ^15NH4Cl, and 5 g/L D-glucose. Cells were grown to OD600 ~1.0 and induced with 0.5 mM IPTG at 37 °C for 4 hr. The ^15N-GST-H4 peptide fusion was purified on glutathione agarose resin (Thermofisher Scientific), cleaved with PreScission protease (16 hr at 4 °C), and products resolved by SEC (Superdex 75 10/300; GE Healthcare Life Sciences). […] Acquisition and deconvolution software used during data collection and analysis were MassLynx and MaxEnt, respectively. ^15N-H4 (1-25) peptide concentration was determined by UV-vis spectroscopy using the non-native C-terminal tyrosine.
Oligonucleotides (5’-[…]-3’ and the complement 5’-[…]-3’) for DNA titration NMR were from Integrated DNA Technologies (IDT). […] Duplex DNA was purified on a source 15Q column (GE Healthcare Life Sciences) and analyzed by 1% agarose gel. DNA was precipitated in ethanol, resuspended in ddH2O, and concentration was determined by UV-vis and the predicted extinction coefficient (ε260=333,804.5 M^–1 cm^–1). […]

Like-named read-outs stand apart in the source and are kept apart here.

“H3K4me3tri^ac: histone H3 peptide H3K4me3K9acK14acK18ac (NMR version aa 1–34)”: the “Log EC50rel” value is listed as -5.811 M with BPTF BD (6His-tagged) [1] and -7.000 M in the experiment with BPTF PHD (6His-tagged). Further, the “preference over peptides containing each PTM class alone (in words)” value with BPTF PHD-BD (GST-tagged) [2] is “no preference”. The “binding” value is given as “no binding” with BPTF BD (6His-tagged) [3] (Ext. Figure 2G, 6His BD); “no binding” with BPTF BD (6His-tagged) [3] (Table (Ext. Figure 2B), 6His-BD); “no binding” in experiment [4] (Figure 2B lower, PHDmut-BD W2891A); “no binding” in experiment [4] (Table (Figure 2C), PHDmut-BD). Besides, in experiment [4] (GST-PHD^mut-BD), the “binding to NCPs (in words)” value is recorded as “lost binding”. Also, the “preference over H3K4me3 or H3tetra^ac” value in the experiment with BPTF PHD-BD (GST-tagged) [5] is listed as greater than 20 fold.

Regarding “^15N-H4 (1-25) peptide: histone H4 tail residues 1–25 followed by a C-terminal tyrosine, recombinant”, the “DNA binding by CSPs (in words)” value in experiment [6] is on record as “the H4 tail bound DNA”.
